The text below walks through data of US20150166988A1 (Bicycle, published 2015).

In assay [1] the target is T1, human plasma kallikrein (activated with factor XIIa) (human, UniProt P03952 20-638). The assay is described as follows: cell-based or functional assay.
Assay [2] has as its target T1, human plasma kallikrein (activated with …). The assay is described as follows: cell-based or functional assay. This is another data set of the same source.
The target is the same in assay [3]. Kind of assay: cell-based or functional assay. This is another data set of the same source.
For assay [4] the target is unchanged. The assay is described as follows: apparent Ki calculated from the enzyme inhibition IC50 (fluorogenic substrate Z-Phe-Arg-AMC) with the Cheng and Prusoff equation.
For assay [5], the target named is human factor XIa (human, UniProt P03951 19-625). The assay is described as follows: cell-based or functional assay.
Assay [6] deals with human thrombin (human, UniProt P00734 328-622). The assay is described as follows: cell-based or functional assay.
Assay [7] concerns the target recombinant mouse plasma kallikrein (activated with thermolysin) (mouse, UniProt P26262 20-638). The assay is described as follows: cell-based or functional assay.

Where two headings read alike, the source gives them in different places. *1 amine or outer side, *2 acyl side, *3 side chain or, on linkers, in order; H or OH if unused. Bridges are numbered along the chain shown (N, C = ends). TBMB = c1c(C[*:1])cc(C[*:3])cc1C[*:2]

T1 sequence (P03952 20-638 limits assumed): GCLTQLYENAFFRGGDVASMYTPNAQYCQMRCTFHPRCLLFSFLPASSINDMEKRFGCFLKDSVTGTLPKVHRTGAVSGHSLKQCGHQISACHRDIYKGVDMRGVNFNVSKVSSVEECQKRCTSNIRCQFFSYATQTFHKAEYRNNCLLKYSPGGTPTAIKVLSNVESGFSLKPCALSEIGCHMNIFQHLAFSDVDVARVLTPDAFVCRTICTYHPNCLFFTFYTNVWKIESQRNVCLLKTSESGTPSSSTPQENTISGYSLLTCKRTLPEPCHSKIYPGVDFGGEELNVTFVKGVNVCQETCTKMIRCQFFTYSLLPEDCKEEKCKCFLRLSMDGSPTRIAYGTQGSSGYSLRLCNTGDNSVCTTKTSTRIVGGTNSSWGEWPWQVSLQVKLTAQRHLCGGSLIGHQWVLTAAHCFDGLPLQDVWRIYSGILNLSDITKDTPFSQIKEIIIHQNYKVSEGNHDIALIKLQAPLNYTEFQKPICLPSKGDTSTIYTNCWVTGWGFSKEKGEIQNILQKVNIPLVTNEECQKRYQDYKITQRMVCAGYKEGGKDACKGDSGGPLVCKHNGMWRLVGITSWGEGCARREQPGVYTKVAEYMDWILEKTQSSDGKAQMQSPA
Sequence of recombinant mouse plasma kallikrein (activated with thermolysin) (P26262 20-638 limits assumed): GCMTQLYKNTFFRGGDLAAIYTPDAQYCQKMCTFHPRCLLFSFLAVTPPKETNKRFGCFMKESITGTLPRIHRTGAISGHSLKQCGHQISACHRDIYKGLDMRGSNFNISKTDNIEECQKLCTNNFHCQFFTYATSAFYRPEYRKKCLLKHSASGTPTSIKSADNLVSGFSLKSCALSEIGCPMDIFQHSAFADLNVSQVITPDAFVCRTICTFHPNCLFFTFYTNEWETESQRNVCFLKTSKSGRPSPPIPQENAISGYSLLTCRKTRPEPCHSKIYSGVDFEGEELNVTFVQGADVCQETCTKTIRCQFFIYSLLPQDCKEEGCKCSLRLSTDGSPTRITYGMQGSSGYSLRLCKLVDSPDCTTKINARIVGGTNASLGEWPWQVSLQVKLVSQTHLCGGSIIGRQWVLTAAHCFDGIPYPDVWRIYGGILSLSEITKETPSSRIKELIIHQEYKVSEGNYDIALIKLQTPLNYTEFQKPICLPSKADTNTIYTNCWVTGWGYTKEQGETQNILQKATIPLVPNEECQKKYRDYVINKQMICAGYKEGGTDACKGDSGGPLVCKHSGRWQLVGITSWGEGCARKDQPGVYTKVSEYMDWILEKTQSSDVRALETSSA

H-ACSTERRYCPIEIFPCG-NH2 (cysteine pairing not given here) [linear synthetic peptide PK4 (not TBMB modified)]: the “IC50 (nM), residual enzyme activity” value in assay [1] and in assay [2] was 7180 nM in each case.
On to H-ACSDRFRNCPLWSGTCG-NH2 (cysteine pairing not given here) [linear synthetic peptide PK2 (not TBMB modified)], for which the “IC50 (nM), residual enzyme activity” value in assay [1] and in assay [2] was greater than 10000 nM in each case.

B1: TBMB modified peptide PK15 hydrolysed in one binding loop by human plasma kallikrein (peptide)
peptide: H-ACSDRFRNCPADEALCG-NH2
modifications: linker 2-9-16 via TBMB; also: one peptide bond in a loop hydrolysed, position not given here
As for B1, in assay [3], the “IC50, residual enzyme activity” value amounted to 2.2 nM.

B2: TBMB modified peptide PK15 (bi-cyclic peptide) (peptide)
peptide: H-ACSDRFRNCPADEALCG-NH2
modifications: linker 2-9-16 via TBMB
notes: Chemically synthesized 17-mer reacted with TBMB; also called conjugate PK15; peptide conjugate PK15
As for B2, the “IC50 (nM), residual enzyme activity” value in assay [1] and in assay [2] was 1.7 nM each time. The “IC50, residual enzyme activity” value in assay [3] was 1.6 nM. The Ki in assay [4] is 1.5 nM.

B3: TBMB modified synthetic peptide PK4 (bi-cyclic peptide) (peptide)
peptide: H-ACSTERRYCPIEIFPCG-NH2
modifications: linker 2-9-16 via TBMB
SMILES: CC[C@H](C)[C@@H]1NC(=O)[C@H](CCC(=O)O)NC(=O)[C@H]([C@@H](C)CC)NC(=O)[C@@H]2CCCN2C(=O)[C@@H]2CSCc3cc(cc(c3)CSC[C@@H](C(=O)NCC(N)=O)NC(=O)[C@@H]3CCCN3C(=O)[C@H](Cc3ccccc3)NC1=O)CSC[C@H](NC(=O)[C@H](C)N)C(=O)N[C@@H](CO)C(=O)N[C@@H]([C@@H](C)O)C(=O)N[C@@H](CCC(=O)O)C(=O)N[C@@H](CCCNC(=N)N)C(=O)N[C@@H](CCCNC(=N)N)C(=O)N[C@@H](Cc1ccc(O)cc1)C(=O)N2
As for B3, the “IC50 (nM), residual enzyme activity” value in assay [1] and in assay [2] was 33 nM each time. Moreover, the “inhibitory activity (residual enzyme activity)” value in assay [5], in assay [6] and in assay [7] was greater than 10 µM each time.

B4: TBMB modified synthetic peptide PK2 (bi-cyclic peptide) (peptide)
peptide: H-ACSDRFRNCPLWSGTCG-NH2
modifications: linker 2-9-16 via TBMB
SMILES: CC(C)C[C@@H]1NC(=O)[C@@H]2CCCN2C(=O)[C@@H]2CSCc3cc(cc(c3)CSC[C@@H](C(=O)NCC(N)=O)NC(=O)[C@H]([C@@H](C)O)NC(=O)CNC(=O)[C@H](CO)NC(=O)[C@H](Cc3c[nH]c4ccccc34)NC1=O)CSC[C@H](NC(=O)[C@H](C)N)C(=O)N[C@@H](CO)C(=O)N[C@@H](CC(=O)O)C(=O)N[C@@H](CCCNC(=N)N)C(=O)N[C@@H](Cc1ccccc1)C(=O)N[C@@H](CCCNC(=N)N)C(=O)N[C@@H](CC(N)=O)C(=O)N2
With B4, the “IC50 (nM), residual enzyme activity” value in assay [1] and in assay [2] was 28.6 nM each time. Besides, the “inhibitory activity (residual enzyme activity)” value in assay [5], in assay [6] and in assay [7] was greater than 10 µM throughout.
Regarding H-ACSDRFRNCPADEALCG-NH2 (cysteine pairing not given here) [linear synthetic peptide PK15 (not TBMB modified)], the “IC50 (nM), residual enzyme activity” value in assay [1] and in assay [2] was greater than 10000 nM in each case.
